{"source": "paper PMC5798227", "target": "DS-SOSIP.664 trimer (BG505) (HIV-1 BG505 (clade A))", "assay": "SPR", "data": [{"substance": "2-domain soluble CD4 (receptor)", "values": [{"measurement": "Kd", "result": 8, "unit": "nM"}]}]}
